What all share (experiment): cell-based or functional assay
Assay [1] deals with human Y4 receptor (human) (UniProt P50391).
Assay [2] concerns the target human Y1 receptor (human) (UniProt P25929).
In assay [3] the target is human Y2 receptor (human) (UniProt P49146).
Sequence of human Y2 receptor (human) (P49146 whole entry): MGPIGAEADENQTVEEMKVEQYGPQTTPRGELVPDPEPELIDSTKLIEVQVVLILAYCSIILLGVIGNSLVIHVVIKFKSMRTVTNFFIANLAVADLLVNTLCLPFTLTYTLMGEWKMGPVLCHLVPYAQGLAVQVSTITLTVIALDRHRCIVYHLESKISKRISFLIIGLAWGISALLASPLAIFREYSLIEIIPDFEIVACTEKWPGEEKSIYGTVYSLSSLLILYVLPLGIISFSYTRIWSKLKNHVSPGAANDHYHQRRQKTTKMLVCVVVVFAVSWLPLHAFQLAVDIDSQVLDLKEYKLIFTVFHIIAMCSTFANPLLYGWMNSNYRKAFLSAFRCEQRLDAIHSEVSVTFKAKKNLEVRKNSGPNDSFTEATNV

Sequence of human Y1 receptor (human) (P25929 whole entry): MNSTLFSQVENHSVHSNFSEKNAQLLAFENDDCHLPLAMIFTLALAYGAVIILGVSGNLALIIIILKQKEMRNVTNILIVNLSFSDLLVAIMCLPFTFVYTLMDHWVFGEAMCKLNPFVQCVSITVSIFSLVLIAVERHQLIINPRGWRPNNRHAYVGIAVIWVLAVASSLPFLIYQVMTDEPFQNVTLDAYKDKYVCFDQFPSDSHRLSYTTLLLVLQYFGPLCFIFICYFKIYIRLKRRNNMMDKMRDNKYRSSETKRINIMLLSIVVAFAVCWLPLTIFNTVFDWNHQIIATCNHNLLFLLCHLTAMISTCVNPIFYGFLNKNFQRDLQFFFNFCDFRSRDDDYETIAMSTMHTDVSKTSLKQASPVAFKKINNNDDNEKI
Sequence of human Y4 receptor (human) (P50391 whole entry): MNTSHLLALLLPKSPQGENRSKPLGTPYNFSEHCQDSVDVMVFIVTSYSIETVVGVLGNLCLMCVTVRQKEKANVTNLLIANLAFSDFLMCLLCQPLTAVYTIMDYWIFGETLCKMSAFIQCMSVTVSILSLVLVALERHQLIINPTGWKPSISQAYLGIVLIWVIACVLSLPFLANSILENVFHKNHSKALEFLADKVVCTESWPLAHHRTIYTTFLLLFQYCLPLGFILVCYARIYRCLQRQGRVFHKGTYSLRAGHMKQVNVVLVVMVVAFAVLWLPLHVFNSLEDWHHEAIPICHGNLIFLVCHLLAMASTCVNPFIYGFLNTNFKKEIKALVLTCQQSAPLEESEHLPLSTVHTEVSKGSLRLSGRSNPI

The substance “4-N{alpha}-(3-Methylbutanoyl)-7-N{Epsilon}-[2-[2-[2-[[2-[2-[2-[[(4S)-4-carboxy-4-[[(4S)-4-carboxy-4-(16-sulfohexadecanoylamino)butanoyl]amino]butanoyl]amino]-ethoxy]ethoxy]acetyl]amino]ethoxy]ethoxy]acetyl]-[Lys7,Gln18,Trp30,NMeArg35]hPYY(4-36) (peptide)” had an EC50, Actone functional potency assay in assay [1] above 1000 nM.
In turn, “4-N{alpha}-(hexanoyl)-7-N{Epsilon}-2-[2-[2-[[2-[2-[2-[[(4S)-4-carboxy-4-(16-sulfohexadecanoylamino)butanoyl]amino]ethoxy]ethoxy]acetyl]amino]ethoxy]-ethoxy]acetyl]-[Arg4,Lys7,Gln18,Trp30,NMeArg35]hPYY(4-36) (peptide)” came in with an EC50, Actone functional potency assay in assay [2] above 1000 nM.
“7-N{Epsilon}-[2-[2-[2-[[2-[2-[2-[[2-[2-[2-[[2-[2-[2-[4-[16-(1H-tetrazol-5- yl)-hexadecanoylsulfamoyl]butanoylamino]ethoxy]ethoxy]acetyl]amino]ethoxy]-ethoxy]acetyl]amino]ethoxy]ethoxy]acetyl]amino]ethoxy]ethoxy]acetyl]-[Lys7,Gln18,Trp30,NMeArg35]hPYY(3-36) (peptide)” had an EC50, Actone functional potency assay in assay [2] above 1000 nM.
For “7-N{Epsilon}-[2-[2-[2-[[2-[2-[2-[[(4S)-4-carboxy-4-(16-sulfohexadecanoylamino)-butanoyl]amino]ethoxy]ethoxy]acetyl]amino]ethoxy]ethoxy]acetyl]-[Arg4,Lys7,Gln18,Trp30]hPYY(3-36) (peptide)”, the EC50, Actone functional potency assay in assay [1] was above 1000 nM; in assay [2], above 1000 nM; in assay [3], 1 nM.
In assay [2], “7-N{Epsilon}-[2-[2-[2-[[2-[2-[2-[[(4S)-4-carboxy-4-(16-sulfohexadecanoylamino)-butanoyl]amino]ethoxy]ethoxy]acetyl]amino]ethoxy]ethoxy]acetyl]-[Lys7,Gln18,Trp30,NMeArg35]hPYY(3-36) (peptide)” gave an EC50, Actone functional potency assay above 1000 nM.
